Experimental data as given in US10758615B2, “Human monoclonal antibodies against orexin receptor type 1” (INSERM (INSTITUT NATIONAL DE LA SANTE ET DE LA RECHERCHE …, priority 2015, dated 2020).

How the values were obtained:
[1] = tested on: HEK-OX1R cells expressing recombinant OX1R; test: Apoptosis in HEK-OX1R cells (annexin V-PE binding, Guava nexin kit); format: cell-based, human
HT-29 cells = test: Growth of tumors from xenografted human HT-29 cells in nude mice; format: in vivo; settings: ip, 2 injections/week, Day 43
Method: FIG. 8: Effect of inoculation of orexin-A and C2 antibody on the growth of tumors developed by xenografted human HT-29 cells in nude mice. Colon adenocarcinoma derived cells, HT-29, were inoculated in the flank of nude mice at day 0. Mice were injected at day 1 (2 injections/week) intraperitoneally with 100 μl of orexin-A solution (1.4 μmoles of orexin-A/Kg (white circles)) or with 100 μl of C2 antibody solution (0.065 μmoles/Kg (black triangles) or 0.02 μmoles/Kg (white triangles)) or with 100 μl of PBS (black circles) for control. The inventors have tested the ability of C2 antibody to inhibit the tumor development of xenografted nude mice with the human colon adenocarcinoma cell line, HT-29. After subcutaneous injection of 1.5×10^6 HT-29 cells in mice, animals were treated by 2 intraperitoneal (ip) injection/week of Orexin-A (100 μg/injection corresponding to 1.4 μmoles of orexin-A/Kg) or two doses of C2 antibody (200 μg/injection or 50 μg/injection corresponding to 0.065 μmoles/Kg and 0.02 μmoles/Kg, respectively). Control was determined by ip injection of 100 μl of PBS. The experiment was conducted during 45 days and the tumor volume was estimated by measuring the short and long axes of developedtumors each ⅔ days.

[2] = tested on: CHO cells lines transfected with OX1R of rat; test: Cross-reaction: cells transfected with rat OX1R; format: cell-based; settings: 0.1 μM, 48 h
SW48 cells = test: Cell growth of colon cancer cell line SW48; format: cell-based; settings: 0.1 μM, 48 h
Method: (§1) Cells were treated for 48 h with 0.1 μM of each compound and then cells were counted. Results were expressed as the percentage of untreated cell number (Control).
(§2) We have tested the ability of antibodies to inhibit the cellular growth in cancer cell lines derived from colon cancer (SW48, LoVo and HCT-116 cells) and pancreas cancer (AsPC-1 cells). […] D4 and H7 have a weak effect. […] As previously described (see above) orexins are able to induce a mitochondrial apoptosis in cancer cell lines. We test the ability of antibodies to induce apoptosis in HEK-OX1R cells and colonic cancer cell line LoVo. […] This effect was dose-dependent. Indeed when HEK-OX1R cells were treated with 0.01 μM of C2 antibody, cell apoptosis was only of 6±0.7% of total cells.

[3] = tested on: HEK-OX1R cells expressing recombinant OX1R; test: Cell growth of HEK-OX1R cells (cell counting); format: cell-based, human; settings: 0.1 μM, 48 h
LoVo cells = test: Cell growth of colon cancer cell line LoVo; format: cell-based; settings: 0.1 μM, 48 h
Method: as §1, §2

AsPC-1 cells = test: Cell growth of pancreas cancer cell line AsPC-1; format: cell-based; settings: 0.1 μM, 48 h
Method: as §1, §2

LoVo cancer cell line = test: Apoptosis in LoVo cancer cell line; format: cell-based
Excerpt: as §2

[4] = tested on: CHO cells lines transfected with OX1R of mouse; test: Cross-reaction: cells transfected with mouse OX1R; format: cell-based; settings: 0.1 μM, 48 h
[5] = 100 μg/injection (1.4 μmoles/Kg)
[6] = 200 μg/injection (0.065 μmoles/Kg)
[7] = low dose, 50 μg/injection (0.02 μmoles/Kg)

Molecule: O=S(=O)(O)c1ccc2cc(N=Nc3cc(S(=O)(=O)O)c4cccnc4c3O)ccc2c1 [NSC-87877, reference compound]
- effect of SHP-2 inhibitor on orexin-induced apoptosis ([1]; NSC-87877 50 μM): blocks orexin-induced apoptosis

Molecule: Orexin-A (QPLPDCCRQKTCSCRLYELLHGAGNHAAGILTL) [orexin A, a 33 amino acid neuropeptide, native OX1R ligand, reference compound]
- inhibition of tumor growth (HT-29 cells; [5]): about 65%
- tumor volume (HT-29 cells; [5]): ~570±100 mm^3

B1: C2: human monoclonal anti-OX1R antibody from phage display; VH SEQ ID NO:1, VL SEQ ID NO:2 (antibody, V domains shown)
VH: EVQLVESGGSLVKPGGSLRLSCAASGFTFSNSYMNWVRQAPGKGLEWISSIYGSSRYIDYADFVKGRFTISRDNATNSLYLQMNSLRAEDTAVYYCVRSSSYYGSGMDVWGRGTLVTVSS
VL: QSVLTQPASVSGSPGQSITISCAGTSSDVGGYGSVSWYQQHPGKAPKLMIYYDSYRPSGVSNRFSGSKSGNTASLTISGLQAEDEADYYCSSNTNSSTRVFGGGTKLAVLG
modifications: Synthetic VH sequence of C2; Synthetic VL sequence of C2
- promotion of apoptosis of cells transfected with rat OX1R [2]: able to promote apotosis
- inhibition of cell growth in SW48 cells (SW48 cells): inhibit the cell growth in SW48 cells similarly to OxB
- reduction of HEK-OX1R cell number ([3]; versus untreated cells): ~37±3%
- inhibition of HEK-OX1R cellular growth in the presence of SHP inhibitor ([3]; with 50 μM NSC 87877): totally reversed
- inhibition of cell growth in LoVo cells (LoVo cells): inhibit the cell growth in LoVo cells similarly to OxB
- inhibition of cell growth in AsPC-1 cells (AsPC-1 cells): cell growth inhibition similar to OxB effect
- apoptotic response in LoVo cancer cell line (LoVo cancer cell line; 0.01 μM): strongly reduce the apoptotic response
- induction of apoptosis in LoVo cancer cell line (LoVo cancer cell line; 0.1 μM, 48 h): able to induce apoptosis
- promotion of apoptosis of cells transfected with mouse OX1R [4]: able to promote apotosis
- reduction of tumor development (HT-29 cells; [6]): about 60%
- tumor volume (HT-29 cells; [6]): ~650±98 mm^3
- inhibition of tumor growth (HT-29 cells; [7]): 45%
- tumor volume (HT-29 cells; [7]): ~885±130 mm^3
- apoptosis in HEK-OX1R cells, % of total cells ([1]; 0.01 μM): 6±0.7%
- apoptosis in HEK-OX1R cells, % of total cells ([1]; 0.1 μM, 48 h): 16±2%
- apoptosis and growth inhibition in the presence of SHP inhibitor ([1]; with NSC 87877): totally abolished
